# Reference: the nanobody polyreactivity screen of Harvey et al. (2022)
# Test: yeast display, Sf9 membrane polyspecificity reagent, FACS + sequencing; frameworks hold sequencing errors
# How it was run: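 Genes from sorted yeast were amplified by colony PCR, read by MiSeq 2 × 250 sequencing and filtered on CDR length. These cells carried a synthetic nanobody library in Saccharomyces cerevisiae BJ5465 and were sorted by FACS into low and high (top ~1%) gates on anti-HA and streptavidin fluorescence. Polyreactivity is labelled according to the gate of origin.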
row,Sequence,polyreactivity (PSR sort gate)
1,QVQLVESGGGLVQAGGSLRLSCASSGRTFFRNPMGWYRQAPGKERELVAAISKRGGSTYYADSVKGRFTISRDNAKNTVYLQMISLSPEDTAVYYCNADPRTVGLDYWGQGTQVTVSS,high polyreactivity
2,QVQLVESGGGLVQAGGSLRLSCAASGITFTEYAMGWYRQAPGKERELVAAITGSGTSTYYADSVKGRFTISRDNAKNTVYLQMNSLKPEDTAVYYCAARTRGTAYNYWGQGTQVTVSS,high polyreactivity
3,QVQLVESGGGLVQAGGSLRLSCAASGRIFVWNVMGWYRQAPGKERELVAAITYSGDTTYYADSVKGRFTISRDNAKNTVYLQMNSLKPEDTAFYYCAAVRRGGGVKYDYWGQGTQVTVSS,high polyreactivity
4,QVQHEESGGGLVQAGGSLRLSCAASGSIFLHYAIGWYRQAPGKERVFVAAISFRSGSTYYADSVKGRFTISRDNAKNTVYLKLNSLKPEDTAVYYCASKSYNFIPGIREYDYWGQGTQVTVSS,low polyreactivity
5,QVQLVESGGGLVQAGGSLRLSCAASGFTFERYAMGWYRQAPGKERELVAAIDWRGVNTYYADSVKGRFTISRDNAKNTVYLQMNSLKPEDTAVYYCAATRPATYASYDYWGQGTQLTVSS,high polyreactivity
6,QVQLVESGGGLVQAGGSLRLSCAASGSIFYRYDMGWYRQAPGKERELVADISWSSGRTYYADSVKGRFTISRDNAKNTVYLQMNSLKPEDTAVYYCATDDFWNVKFYAYYPEFDYWGQGSQVTVSS,low polyreactivity
7,QVQLVESGGGLVQAGGSLRLSCAASGSIFYYNARGGYRQAPGKERELVATIRTSGGSTYYADSVKGRFTISRDNAMNTVYVQLNSLKPEDTAVYYCAARDLRKLYSRYPYYYWGQGTQVTVSS,high polyreactivity
8,QVQLVESGGGLVQAGGSLRLSCAASGRTIYYYARGWYRQAPGKERELVAAITLRGGSTYYADSVKGRFTISRDNAKKTVYLQMNSLKPEDTAVYYCAKESTVRRYDYWGQGTQVTVSS,low polyreactivity
9,QVQLVDSGGGLVQAGGSLRLRCAASGRIFWYYAMGWYRQAPGKERELVASITRGNNTYYADSVKGRFTISRDNAKNTVYLQMNSLKPEVTAVFYCAKRYIYSYYWGQGTQVTVSS,high polyreactivity
10,QVQLVESGGGLVQAGGSLRLSCAASGFIFVSYAMGWYRPAPGKERELVAAIDRIGGITYYADSVKGRFTISRDNAKNTVYLQMNSLKPEDTAVYYCAAAARYATVRVGREYYWGQGTQVTVSS,low polyreactivity
11,QVQLVESGGGLVQAGGSLRLSCAASGSIFIYYAMGGYRQEPGKERELVAAINTGGTTYYADSVKGRFTISRYNAKNTVYLQMNSLNPEDTAVYYCAKYIAYYGYVPSPWDHPGDDYWGQGTQVTVSS,low polyreactivity
12,QVQLVESGRGLVQAGGSLRISCAASGRTFYSYAMGWYRQAPGKERELVAAITSSGGRTYYADSVKGRFTISRDNAKNTVYLQMNSLKPEDTAVYYCNKLRRSPNSQYYYWGQGTQVTVSS,high polyreactivity
13,QVQLVESGGGLVQAGGSLRLSCAASGSIFDYYGMGWYRQAPGKEGELVATISQGGDSSYYADSVKGRFTISRDNAKNTVYLQMNSLKPEDTAVYYCAALVPIYRWYKLYYWGQGTQVTLSS,low polyreactivity
14,QVQLVESGGGLVQAGCSLRLICAASGSISYHNAKGWYRQAPAKEREWVAANSGDGDSTYYADSVKVRFTISRDNAKHTVYLQMNTLKPEDSAVYYSAAEPTVYFSDFVLFPSDFWGQGTQVTVSS,low polyreactivity
15,QLQLVESGGGLVQAGGSLRLSCAASGSTFAPYAMGWYRQAPGKERELVADISGGSTNYADSVKGRFTISRDNAKNTVYLQMNSLKPEDTAVYYCATEDHVETVRRLYGYWGLGTQVTVSS,low polyreactivity
16,QVQLVESGGGLVQAGGSLRLCCAPSGSIFYGYDMGWYRQAPGKERELVATISWSSGSSTYYADSVKGRFTISRDNAKNTVYLQMNSLKPEDTAVYYCAVDFAIGYRYLGRVDYWGQGTQVTVSS,low polyreactivity
17,QVQLVESGGGLVQAGGSLRLSCAASGFTFWRYAMGWYRQAPGKERELVAAISRTGGRTYYADSVKGRFTISRDNAKNTVYLQMNSLKPEDTAVYYCAADWLYDYGEYYYWGQGTQVTVSS,high polyreactivity
18,QVQLVESGGGLVQAGGSLRLSCAASGRIFSYYAMGWYRQAPGKERELVAAISWNGGSTYYADSVKGRFTISRDNAKNTVYLQMNSLKPEDTAVYYCNRLGYRTGYERDYWGQGTQVTVSS,high polyreactivity
19,QVQLEESGGGLVQAGGSLRLSCAASGFTFNLYTMGWYRQAPGKERELVAAISRSGDRTYYADSVKGRFTISRDNAKNTVYLQMNSLKPEDTAVYYCAARSYRPTRGDYWGQGTQVTVSS,high polyreactivity
20,QVQLVESGGGLVQAGGSLRLSCAASGRISYSYAMGWYRQAPGKERELVAAISYSGGTTYYADSVKGRFTISRDNAKNTVYLQMNSLKPEDTAVYYCAVDGYDTYGFNGYYIRSGYWGQGTQVTVSS,low polyreactivity
21,QVQLVESGGGLVQAGGSLRLSCAASGSIFEDYAMGWYRQAPGKERELVAAIDWGDGDTYYADSVKGRFTISRDNAKNTVYLQMNSLKPEDTAVYYCAADLVGYSGYYFDEEYYWGQGTQVTVSS,high polyreactivity
22,QVQLVESGGGLVQAGGSLRLSCAASGSIFGRNDMGWYRQAPGKERELVARITRGGSTNYADSVKGRFTISRDNAKNTVYLQMNSLKPEDTAVYYCAKEFKYWGYPYDYWGQGTQVTVSS,low polyreactivity

row,Sequence,polyreactivity (PSR sort gate)
1,QVQLVESGGGLVQAGGSLRLSCAASGNTFGKYAMGWYRHAPGKERELVAAISKSSGSTYYADSVKGRFTLSRDNAKNTVYLQMNSLKPEDTAVYYCAACWYSYRYSRLGFGSWGQGTQVTVSS,high polyreactivity
2,QVQLVESGGGLVQAGGILRLSCAASGSTFYYYAMGWYRQAPGKERELVAAISSSGGTTYYADSVKGRLTISRDNAKNTVYLQMNSLKAEVTAVYYCAAQRYPSSLYQRFYYWGQGTQVTVSS,high polyreactivity
3,QVQLVESGGGLVQAGGSLRLSCAASGIILIHNAMGWYRQARGKERELVAAISTRGGRTYYADSVKGRFTISRDNAKNTVYLQMNSLKPEDTAVYYCAAYRTTPYRDYKMDYLGQGTQVTVSS,high polyreactivity
4,QVQLVESGGGLVQAGGSLRLSCAASGSIFHYYGMGWYRQAPGKERELVAAISRGGSTNYADSVKGRFTISRDNAKNTVYLQMNSLKPEDTAVYYCNARTYRKAYSGYNYWGQGTQVTVSS,high polyreactivity
5,QVQLVESGGGLVQAGGSLRLSCADSGRIFPQYTMGWYRQAPGKERELVAGISYGGVSTYYADSVKGRFTISRDNAKNTVYLHMNSLKPEDTAVYYCARPYGYRGYLRYYWGQGTQVTVSS,high polyreactivity
6,QVQLVESGVGLVQAGGSLRLSCAASGSTFWAYAMGWYRQAPGKERELVAAITTGGGRTFYADSVKGRFTISRDNAKNTVYLQMNSLKPEETAVYYFAAVSQSYRMYYWGQGTQVTVSS,low polyreactivity
7,QVQLVESGGGLVQAGGSLRLSCAASGFIFRYYAMGWYRQAPGKEREFVASINWNGGSTSYADSVKGRFTISRDNAKNTVYLQMNSLKPEDTAVSYCAADFQYAIHTDMDYWGHGTQVTVSS,high polyreactivity
8,QVQLVESGGGLVQAGGSLRLSCAASGSTFRYYAMGWYRKAPGKERELVAAITSSGGSTYYADSVKGRFTISRDNAKNTVYLQMNSLKPEDTAVYYCAVAVKNWVKLNYWGQGTQVTVSS,high polyreactivity
9,QVQLVESGGGLVQAGGSLRLSCAPSGRIFLPYAMGWYRPAPGKEWELVAGISSGGSTKYADSVKGRFTISRDNAMNTVYLQMNSLKPEDTAVYYCNRRFPIYCSRFGYYYWGQGTQVTVSS,high polyreactivity
10,QVQLVESGGGLVQAGGSLRLSCAASGSTFARYAMGWYRQAPGKERELFAVITWTGGSTYYADSVKGRFTISRDNAKNTVYLQMNSLKPEDTAVYYCAADFRYYVTALKYDYWGQGTQVTVSS,low polyreactivity
11,QVQLVESGGGLVQAGGSLRLSCAASGRTFWDNAMGWYRQAPAKERELVAAITFRGGTTYYADSVKGRFTISRDNAKNTVYIQMNSLKPEDTAVYYCAARNGLYRLYYYWGQGTQVTVSS,high polyreactivity
12,QVQLVESGGGLVQAEGSLRLSCAASGSTLLYAMGWYRQAPGKERELVAAISIGDSTNYADSVKGRFTISRDNAKNTVYLQMNSLKPEDTAVYYCNADQGSNYYWGQGTQVTVSS,low polyreactivity
13,QVQLVESGGGLVQAGGSLRLSCAASGLTFGRNAMGWYRQAPGKERELVAAISQSGDRTYYADSVKGRFTISRDNAKNTVYLQMNSLKPEDTAVYYCNAVSSRGWYDYWGQGTQVTLSS,high polyreactivity
14,QFQLVESGGGLVQAGGSLRLSCAASGSIFGVYVMGWSRQGAGKERELVAAITRGASTNYADSVKGRFTISRDNAKNTVYLQMNSLKPEDTAVYYCAAESGNRYEYWGQGTQVTVSS,low polyreactivity
15,QVQLVESGGGLVQAGGSLRLSCAASGSIFVYYDMGWYRQAPGKERELVAAISTTCGRTYYADSVKGRFTISRDNAKNTVYLQMNSLKPEATAVYYCAARYTIPYKRYDYWGQGPQVTVSS,high polyreactivity
16,QVQLVESGGGLVQARGSLRLSCAASGFTFDTYAMGSYRQAPGKARELVAVLSRGGSTYYADSVKGRFTISRDKAKNTVYLQMNSLKPEDPAVYFCNAKHKQGRKQFKLGAGYYWGQGTQVTVSS,high polyreactivity
17,QVQQQESGGGQVQAGGSLRLSCAASGTIFLYAFLGRYRQAPGKERELVAAIDVGTTTNYADSVKGRFTIRRDNANNTVYLQMNSLKPEDTAVYYCAATLGYLDDLGYWGQGTQVTVSS,low polyreactivity
18,QVQLVESGGGLVQAGGSLRLSCAASGRTFRSNAMGWYRQAPGKERELVAAIRTSGGSTYYADSVKGRFTISRDNAKNTVYLQMNSLKPEDTAVYYCNAELRDLEFDYWGQGTQVTVSS,low polyreactivity
19,QDQLVESGGGLDQAGGSLRLSCAASGRILIIYAMGWYRQAPGKERELVARITYTGGRTYYADSVKGRFTISRDNAKNTVYLQMTSLKPEDTAVYYCATVWSRSDSSSHYDYWGQGTQVTVSS,low polyreactivity
20,QVQLVESGGGLVQAGGSLRLSCAASGSIFVNNAMGWYRQAPGKERELVAAISSRGGSTYYADSVKGRFTISRDNAKNTVYLQMNSLKPEDTAVYYCAAEYDGPYYSFYPEQRYYWGQGTQVTVSS,low polyreactivity
21,QVQLVESGGGLVQAGGSLRLSCAASGSTFKFNAMGWYRQAPGKERELVAAISRGGRTNYADSVKGRFTISRDNAKNTVYLQMNSLKPEDTAFYYCAADYSTLYKDDYWGQGTQVTVSS,low polyreactivity
